In ChEMBL document CHEMBL1148343, “Fragment-based drug discovery” (J Med Chem, 2004):

Substrate: Nc1nc(=O)c2c([nH]1)NCC1CN(c3ccc(C(=O)N[C@@H](CCC(=O)O)C(=O)O)cc3)CN21
Test: Michaelis-Menten constant (Km) against thymidylate synthase

B1: Thymidylate synthase (Lactobacillus casei), P00469 (protein)
chain: MLEQPYLDLAKKVLDEGHFKPDRTHTGTYSIFGHQMRFDLSKGFPLLTTKKVPFGLIKSELLWFLHGDTNIRFLLQHRNHIWDEWAFEKWVKSDEYHGPDMTDFGHRSQKDPEFAAVYHEEMAKFDDRVLHDDAFAAKYGDLGLVYGSQWRAWHTSKGDTIDQLGDVIEQIKTHPYSRRLIVSAWNPEDVPTMALPPCHTLYQFYVNDGKLSLQLYQRSADIFLGVPFNIASYALLTHLVAHECGLEVGEFIHTFGDAHLYVNHLDQIKEQLSRTPRPAPTLQLNPDKHDIFDFDMKDIKLLNYDPYPAIKAPVAV
Km: 14 µM
